The results in this text go back to the RNAGym collection of RNA variant scans (doi:10.7554/elife.80360).

B1: Hairpin Ribozyme (parent)
chain: GUCCUCUUUCACGUGCGCGUGAAAGAGAGAAGUGAACCAGAGAAACACACGUUGUGGUAUAUUACCUGGUA

The variants in the data set derive from B1. In words: self-cleavage, relative activity (ratio to wild type); higher = more cleavage; co-transcriptional.
Consider GUCCUCUUUCACGCGCGGGUGAAAGAGAGAAGUGAACCAGAGAAACACACGUUGUGGUAUAUUACCUGGUA, for which the self-cleavage came out at 0.957.

Regarding GUCCUCUUUCACGGGCGCGUGAACGAGAGAAGUGAACCAGAGAAACACACGUUGUGGUAUAUUACCUGGUA, the self-cleavage came out at 0.887.

As for GUCCUCUUUCACGGGCGCGUGAAAGAGAGAAGUGAACCAGAGAAUCACACGUUGUGGUAUAUUACCUGGUA, the self-cleavage came to 0.147.

With GUCCUCUUUCACGGGCGCGUGAAAGGGAGAAGUGAACCAGAGAAACACACGUUGUGGUAUAUUACCUGGUA, the self-cleavage came to 0.781.

In the case of GUCCUCUUUCACGGGCGCGUGAAAGAAAGAAGUGAACCAGAGAAACACACGUUGUGGUAUAUUACCUGGUA, the self-cleavage was determined as 0.189.

As to GUCCUCUUUCACGGGCGCGUGAAAGAGAGAAGUGAACGAGAGAAACACACGUUGUGGUAUAUUACCUGGUA, the self-cleavage turned out to be 0.119.

Turning to GUCCUCUUUCACGGGCGCGUGAAAGAGAGAACUGAACCAGAGAAACACACGUUGUGGUAUAUUACCUGGUA, the self-cleavage turned out to be 0.0712.

For the variant GUCCUCUUUCACGGGCGCGUGACAGAGAGAAGUGAACCAGAGAAACACACGUUGUGGUAUAUUACCUGGUA, the self-cleavage was determined as 0.754.

In the case of GUCCUCUUUCACGGGCGCGUGAUAGAGAGAAGUGAACCAGAGAAACACACGUUGUGGUAUAUUACCUGGUA, the self-cleavage came out at 0.68.

Take GUCCUCUUUCACGGGCGCGUGAAAGAGAGAAGUGAACCAUAGAAACACACGUUGUGGUAUAUUACCUGGUA: the self-cleavage worked out at 0.2.

As for GUCCUCUUUCACGGGCGCGUGAAAGAGAGAAGUGAACCAAAGAAACACACGUUGUGGUAUAUUACCUGGUA, the self-cleavage came to 0.289.

Consider GUCCUCUUUCACGCGCGCGUGAAAGAGAGAAGUGAACCAGAGAAACACACGUUGUGGUAGAUUACCUGGUA, for which the self-cleavage turned out to be 0.727.

Regarding GUCCUCUUUCACGCGCGCGUCAAAGAGAGAAGUGAACCAGAGAAACACACGUUGUGGUAUAUUACCUGGUA, the self-cleavage is 0.883.

In the case of GUCCUCUUUCACGCGCGCGUGAAAGAGAGAAGUGAACCAGAGAAACACACGUUGUGGGAUAUUACCUGGUA, the self-cleavage is 0.545.

For the variant GUCCUCUUUCACGCGCCCGUGAAAGAGAGAAGUGAACCAGAGAAACACACGUUGUGGUAUAUUACCUGGUA, the self-cleavage came out at 0.582.

As to GUCCUCUUUCACGCGCGCGUGAAAGAGAGAAGUUAACCAGAGAAACACACGUUGUGGUAUAUUACCUGGUA, the self-cleavage is 1.54.

In the case of GUCCUCUUUCACGCGCGCGUGAAAGAGAGAAGUAAACCAGAGAAACACACGUUGUGGUAUAUUACCUGGUA, the self-cleavage is 0.988.

For the variant GUCCUCUUUCACGCGCGCAUGAAAGAGAGAAGUGAACCAGAGAAACACACGUUGUGGUAUAUUACCUGGUA, the self-cleavage stood at 0.612.

With GUCCUCUUUCACGCGCGCGUGAAAGAGAGAAGUGAACCAGAGAAACACACGUUGUGGUAUAUUACCAGGUA, the self-cleavage turned out to be 0.151.

For the variant GUCCUCUUUCACGCGCGCGUGAAAGAGAGAAGUGAACCAGAGAAACACACGUUGUGGUAUAUUACCGGGUA, the self-cleavage is 0.344.

As to GUCCUCUUUCACGGGCGCGUGAAAGAGAGGAGUGAACCAGAGAAACACACGUUGUGGUAUAUUACCUGGUA, the self-cleavage came out at 0.0762.

Turning to GUCCUCUUUCACGGGCGCGUGAAAGAGAGAAGUGAACCAGAGAAACAGACGUUGUGGUAUAUUACCUGGUA, the self-cleavage worked out at 0.178.

Take GUCCUCUUUCACGCGCGCGUGAAAGAGAGAAGUGAACCAGAGAAACACACGUUGUGGUAUAUUACCUUGUA: the self-cleavage worked out at 0.13.

With GUCCUCUUUCACGCGCGCGUGAAAGAGAGAAGUGAACCAGAGAAACACACGUUGUGGUAUAUUACCUAGUA, the self-cleavage was determined as 0.234.

Turning to GUCCUCUUUCACGGACGCGUGAAAGAGAGAAGUGAACCAGAGAAACACACGUUGUGGUAUAUUACCUGGUA, the self-cleavage came to 0.932.

As for GUCCUCUUUCACGGGCGCGUGAAAGAGUGAAGUGAACCAGAGAAACACACGUUGUGGUAUAUUACCUGGUA, the self-cleavage was 0.39.

On to GUCCUCUUUCACGGGCGCGUGCAAGAGAGAAGUGAACCAGAGAAACACACGUUGUGGUAUAUUACCUGGUA, for which the self-cleavage stood at 0.75.

GUCCUCUUUCACGCGCGCGUGAAAUAGAGAAGUGAACCAGAGAAACACACGUUGUGGUAUAUUACCUGGUA: the self-cleavage was 0.762.

As for GUCCUCUUUCACGGGCGCGUGAAAGAGAGAAGUGAACCAGUGAAACACACGUUGUGGUAUAUUACCUGGUA, the self-cleavage worked out at 1.05.

In the case of GUCCUCUUUCACGCGCGCGUGAAAGACAGAAGUGAACCAGAGAAACACACGUUGUGGUAUAUUACCUGGUA, the self-cleavage is 0.078.

Turning to GUCCUCUUUCACGGGCGCGUGAAAGAGAGAAGUGAACCCGAGAAACACACGUUGUGGUAUAUUACCUGGUA, the self-cleavage turned out to be 0.393.

Turning to GUCCUCUUUCACGCGCGCGUGAAAGAGAGAAGUGAACCAGAGAAACACACGUUGUGGUAUAUUACCUGGCA, the self-cleavage turned out to be 1.15.

As for GUCCUCUUUCACGGGCGAGUGAAAGAGAGAAGUGAACCAGAGAAACACACGUUGUGGUAUAUUACCUGGUA, the self-cleavage was determined as 0.941.

With GUCCUCUUUCACGGGCGGGUGAAAGAGAGAAGUGAACCAGAGAAACACACGUUGUGGUAUAUUACCUGGUA, the self-cleavage worked out at 0.694.

Consider GUCCUCUUUCACGGGCGCGUGAAAGAGAGAAGUGAACCAGAGAUACACACGUUGUGGUAUAUUACCUGGUA, for which the self-cleavage was found to be 0.138.

In the case of GUCCUCUUUCACGCGCGCGUGAAAGAGAGAAGUGAACCAGAGAAACACACGUUGUGAUAUAUUACCUGGUA, the self-cleavage is 0.215.

As to GUCCUCUUUCACGCGCGCGUGAAAGAGAGAAGUGAACCAGAGAAACACACGUUGUGCUAUAUUACCUGGUA, the self-cleavage was determined as 0.0473.

For the variant GUCCUCUUUCACGGGCGCGUGAAAGAGAGAAGUGAACCAGAGAAAAACACGUUGUGGUAUAUUACCUGGUA, the self-cleavage came to 0.113.

For GUCCUCUUUCACGGGCGCGUGAAAGAGAGAAGUGAACCAGAGAAAUACACGUUGUGGUAUAUUACCUGGUA, the self-cleavage came to 0.21.

Take GUCCUCUUUCACGGGCGCGUGAAAGAGAGAAGUAAACCAGAGAAACACACGUUGUGGUAUAUUACCUGGUA: the self-cleavage was found to be 1.05.

As to GUCCUCUUUCACGCGGGCGUGAAAGAGAGAAGUGAACCAGAGAAACACACGUUGUGGUAUAUUACCUGGUA, the self-cleavage was found to be 0.821.

As for GUCCUCUUUCACGCGAGCGUGAAAGAGAGAAGUGAACCAGAGAAACACACGUUGUGGUAUAUUACCUGGUA, the self-cleavage worked out at 0.922.

Consider GUCCUCUUUCACGCGCGCGUGAAAGAGAGAAGUGAACCAGAGAAACACAUGUUGUGGUAUAUUACCUGGUA, for which the self-cleavage turned out to be 0.265.

In the case of GUCCUCUUUCACGCGCGCGUGAAAGAGAGAAGUGAACCAGAGAAACACACGUAGUGGUAUAUUACCUGGUA, the self-cleavage turned out to be 1.18.

As for GUCCUCUUUCACGCGCGCGUGAAAGAGAGAAGUGAACCAGAGAAACACACGUCGUGGUAUAUUACCUGGUA, the self-cleavage was found to be 0.675.

Take GUCCUCUUUCACGCGCGCGUGAAAGAGAGAAGUGAACCAGAGAAACACACGUGGUGGUAUAUUACCUGGUA: the self-cleavage turned out to be 0.936.

As to GUCCUCUUUCACGGGCGCGUGAAAGAGAGAAGUGAACCAGAGAAACACAAGUUGUGGUAUAUUACCUGGUA, the self-cleavage was found to be 0.307.

On to GUCCUCUUUCACGGGCGCGUGAAAGAGAGAAGUGAACCAGAAAAACACACGUUGUGGUAUAUUACCUGGUA, for which the self-cleavage came to 0.163.

In the case of GUCCUCUUUCACGCGCGCGUGAAAGAGAGAAGUGAACCAGAGAAACACACGUUCUGGUAUAUUACCUGGUA, the self-cleavage is 0.397.

For the variant GUCCUCUUUCACGGGCGCGUGAAAGAGAGAAGUGGACCAGAGAAACACACGUUGUGGUAUAUUACCUGGUA, the self-cleavage is 0.715.

In the case of GUCCUCUUUCACGGGCGCGUGAAAGAGAGAAGUGUACCAGAGAAACACACGUUGUGGUAUAUUACCUGGUA, the self-cleavage turned out to be 0.49.

For GUCCUCUUUCACGGGCGCGUGAAAGAGAGAAGUGCACCAGAGAAACACACGUUGUGGUAUAUUACCUGGUA, the self-cleavage was 0.805.

With GUCCUCUUUCACGGGCGCGUGAAAGAGAGAAGUGAACCAGAGAAACGCACGUUGUGGUAUAUUACCUGGUA, the self-cleavage is 0.157.

As for GUCCUCUUUCACGCGCGCGUGAAAGAGAGAAGUGAACCAGAGAAACACACCUUGUGGUAUAUUACCUGGUA, the self-cleavage amounted to 0.586.

Take GUCCUCUUUCACGCGCGCGUGAAAGAGAGAAGUGAACUAGAGAAACACACGUUGUGGUAUAUUACCUGGUA: the self-cleavage was determined as 0.493.

Take GUCCUCUUUCACGGGCGCGUGAAAGAGAGAUGUGAACCAGAGAAACACACGUUGUGGUAUAUUACCUGGUA: the self-cleavage stood at 0.119.

Take GUCCUCUUUCACGGGCGCGUGAAAGAGAGAAGUGAACCAGAGAAACACCCGUUGUGGUAUAUUACCUGGUA: the self-cleavage is 0.

In the case of GUCCUCUUUCACGGGCGCGUGAAAGAGAGAAGUGAACCAGAGAAACACACGUUGUGGUAUAUUGCCUGGUA, the self-cleavage worked out at 0.407.

With GUCCUCUUUCACGCGCGCGUGAAAGAGAGAAGGGAACCAGAGAAACACACGUUGUGGUAUAUUACCUGGUA, the self-cleavage was 0.191.

Turning to GUCCUCUUUCACGCGCGCGUGAAAGAGAGAAGCGAACCAGAGAAACACACGUUGUGGUAUAUUACCUGGUA, the self-cleavage is 0.0775.

Regarding GUCCUCUUUCACGGGCGCGUGAAAGAGAGAAGUGACCCAGAGAAACACACGUUGUGGUAUAUUACCUGGUA, the self-cleavage amounted to 0.729.

On to GUCCUCUUUCACGCGCGCGUGAAAGAGAGAAGUGAACCAUAGAAACACACGUUGUGGUAUAUUACCUGGUA, for which the self-cleavage came to 0.188.

For GUCCUCUUUCACGCGCGCGUGAAAGAGAGAAGUGAACCACAGAAACACACGUUGUGGUAUAUUACCUGGUA, the self-cleavage is 0.156.

In the case of GUCCUCUUUCACGCGCGCGUGAAAGAGAGAAGUGAACCAAAGAAACACACGUUGUGGUAUAUUACCUGGUA, the self-cleavage came out at 0.326.

With GUCCUCUUUCACGGGCGCGUUAAAGAGAGAAGUGAACCAGAGAAACACACGUUGUGGUAUAUUACCUGGUA, the self-cleavage is 0.625.

In the case of GUCCUCUUUCACGGGCGCGUGAAAGAGAGAAGUGAACCAGAGAAACACACGUUGUGGUAUAUUAGCUGGUA, the self-cleavage came to 0.213.

As for GUCCUCUUUCACGCGCGCGUGAAAGAGAGAAGUGAACCAGAGAAACACACGUUGUAGUAUAUUACCUGGUA, the self-cleavage was 0.143.

For GUCCUCUUUCACGGGCGCGUGAAAGAGACAAGUGAACCAGAGAAACACACGUUGUGGUAUAUUACCUGGUA, the self-cleavage was found to be 0.169.

Turning to GUCCUCUUUCACGGGCGCGUGAAAGAGAGAAGUGAACCAGAGAAACACACGUUGUGGUGUAUUACCUGGUA, the self-cleavage was 0.121.

GUCCUCUUUCACGGGCGCAUGAAAGAGAGAAGUGAACCAGAGAAACACACGUUGUGGUAUAUUACCUGGUA: the self-cleavage is 0.651.

For the variant GUCCUCUUUCACGGGCGCCUGAAAGAGAGAAGUGAACCAGAGAAACACACGUUGUGGUAUAUUACCUGGUA, the self-cleavage worked out at 0.842.

GUCCUCUUUCACGGGGGCGUGAAAGAGAGAAGUGAACCAGAGAAACACACGUUGUGGUAUAUUACCUGGUA: the self-cleavage came out at 0.548.

In the case of GUCCUCUUUCACGGGUGCGUGAAAGAGAGAAGUGAACCAGAGAAACACACGUUGUGGUAUAUUACCUGGUA, the self-cleavage worked out at 1.06.

With GUCCUCUUUCACGCGCGCGUGAAAGAGAGAAGUGAACCAGAGAAACACACGUUGUGGUAUAUUACAUGGUA, the self-cleavage came to 0.223.

For the variant GUCCUCUUUCACGCGCGCGUGAAAGAGAGAAGUGAACCAGAGAAACACACGUUGUGGUAUAUUACCUGCUA, the self-cleavage is 0.3.

Turning to GUCCUCUUUCACGCGCGCGUGAAAGAGAUAAGUGAACCAGAGAAACACACGUUGUGGUAUAUUACCUGGUA, the self-cleavage is 0.198.
